The values below come from patent publication US20260176354A1, “ANTIBODY BINDING TO CD22, AND BISPECIFIC ANTIBODY, CHIMERIC ANTIGEN RECEPTOR AND ANTIBODY-DRUG CONJUGATE COMPRISING SAME, AND USE THEREOF” (THE ASAN FOUNDATION, priority 2022, published 2026).

For experiment [1], the target named is T1, human CD22-His protein (Sino Biological Inc.) (human, UniProt P20273 20-687).
T1 construct: Bought protein coated on the ELISA plate (100 ng/well); not shown: His tag
T1 sequence (looked up): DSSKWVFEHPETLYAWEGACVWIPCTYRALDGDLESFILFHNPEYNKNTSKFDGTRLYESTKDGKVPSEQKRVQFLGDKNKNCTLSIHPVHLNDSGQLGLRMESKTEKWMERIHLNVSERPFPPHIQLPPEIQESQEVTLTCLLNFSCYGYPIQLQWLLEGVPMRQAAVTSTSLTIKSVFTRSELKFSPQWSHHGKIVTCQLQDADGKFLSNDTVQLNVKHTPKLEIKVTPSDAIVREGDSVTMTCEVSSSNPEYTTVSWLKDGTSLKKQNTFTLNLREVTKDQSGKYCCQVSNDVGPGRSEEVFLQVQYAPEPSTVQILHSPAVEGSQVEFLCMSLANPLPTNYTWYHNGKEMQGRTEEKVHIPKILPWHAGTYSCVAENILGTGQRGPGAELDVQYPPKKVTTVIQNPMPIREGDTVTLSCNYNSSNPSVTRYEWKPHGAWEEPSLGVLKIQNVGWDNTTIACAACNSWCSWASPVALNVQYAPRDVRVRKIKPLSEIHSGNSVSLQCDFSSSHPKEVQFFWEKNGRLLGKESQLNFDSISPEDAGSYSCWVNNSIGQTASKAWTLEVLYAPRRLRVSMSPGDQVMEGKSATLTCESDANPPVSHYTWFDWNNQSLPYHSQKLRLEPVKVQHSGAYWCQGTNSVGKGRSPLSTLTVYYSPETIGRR
Kind of experiment: ELISA, human CD22-His coated, anti-human IgG Fc-HRP detection. The method, then:
Microtiter plates (Corning Inc., MA, USA) were coated overnight at 4° C. with human CD22-His protein (100 ng/well, Sino Biological Inc., Beijing, China). The wells were blocked for 1 hour at 37° C. with 150 μl of 3% BSA (w/v) in PBS, after which serial dilutions of the IgG protein prepared in 3% BSA in PBS were added to each well. After incubation for 1.5 hours at 37° C., the plates were washed three times with PBST (PBS containing 0.05% Tween-20), followed by incubation for 1 hour at 37° C. with an HRP-conjugated anti-human IgG (Fc-specific) antibody (Thermo Fisher Scientific, USA). The plates were washed three times with PBST, and the amount of bound antibody was determined by adding 2,2′-azino-bis(3-ethylbenzothiazoline-6-sulfonic acid) (Thermo Fisher Scientific Inc., MA, USA). The resulting OD₄₀₅ was measured using a microplate spectrophotometer.

Experiment [2] addresses T1, human CD22-His protein (Sino Biological …). Description: ELISA, human CD22-His coated, anti-human Cκ-HRP detection. The method, then:
(§1) Microtiter plates (Corning Inc., MA, USA) were coated overnight at 4° C. with human CD22-His protein (100 ng/well, Sino Biological Inc., Beijing, China). The wells were blocked for 1 hour at 37° C. with 150 μl of 3% BSA (w/v) in PBS, and serial dilutions of the anti-CD22 scFv-Cκ-HA fusion protein, prepared in 3% BSA in PBS, were added to each well. After incubation for 1.5 hours at 37° C., the plates were washed three times with PBST (PBS containing 0.05% Tween-20), followed by incubation for 1 hour at 37° C. with an HRP-conjugated anti-human CK antibody (Millipore, CA, USA). The plates were washed three times with PBST, and the amount of bound antibody was determined by adding 2,2′-azino-bis(3-ethylbenzothiazoline-6-sulfonic acid) (Thermo Fisher Scientific Inc., MA, USA). The resulting OD₄₀₅ was measured using a microplate spectrophotometer.

Another experiment has as its target T2, human CD22-His protein (Homo sapiens, UniProt P20273).
T2 construct: His; purchased Sino Biological Inc., Beijing, China
T2 sequence (P20273 20-847): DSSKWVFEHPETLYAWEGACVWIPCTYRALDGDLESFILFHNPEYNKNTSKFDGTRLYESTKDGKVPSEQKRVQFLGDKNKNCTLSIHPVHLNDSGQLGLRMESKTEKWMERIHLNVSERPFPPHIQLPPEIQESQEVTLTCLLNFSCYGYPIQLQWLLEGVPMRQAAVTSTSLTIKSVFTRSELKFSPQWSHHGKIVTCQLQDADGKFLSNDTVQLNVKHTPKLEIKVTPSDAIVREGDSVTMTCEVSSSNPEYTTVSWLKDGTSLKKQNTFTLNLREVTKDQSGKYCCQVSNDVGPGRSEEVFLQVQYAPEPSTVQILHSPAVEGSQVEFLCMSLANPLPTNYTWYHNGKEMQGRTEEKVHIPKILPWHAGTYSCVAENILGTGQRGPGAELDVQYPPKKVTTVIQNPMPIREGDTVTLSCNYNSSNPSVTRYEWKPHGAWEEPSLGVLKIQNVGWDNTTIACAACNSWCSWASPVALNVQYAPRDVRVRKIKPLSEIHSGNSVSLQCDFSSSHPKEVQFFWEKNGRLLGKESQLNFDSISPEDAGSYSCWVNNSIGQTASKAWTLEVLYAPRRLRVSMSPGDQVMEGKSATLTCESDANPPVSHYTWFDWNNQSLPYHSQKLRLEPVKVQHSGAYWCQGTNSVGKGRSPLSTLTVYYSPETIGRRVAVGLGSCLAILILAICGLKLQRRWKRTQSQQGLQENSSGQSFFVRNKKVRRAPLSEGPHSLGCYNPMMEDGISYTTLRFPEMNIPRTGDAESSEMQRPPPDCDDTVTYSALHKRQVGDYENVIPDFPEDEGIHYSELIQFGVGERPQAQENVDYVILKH
Kind of experiment: ELISA analysis using anti-CD22 scFv-Cκ-HA fusion protein. The note with it: serial dilutions, coated human CD22-His 100 ng/well, FIG. 1. It is filed as binding. The method, then: as §1, with “OD405” for “OD₄₀₅”

Another experiment relates to OCI-Ly7 cells. Kind of experiment: Flow cytometry analysis using anti-CD22 scFv-Cκ-HA fusion protein. It counts as binding, human. The note with it: scFv-Cκ-HA fusion protein 0.25 μM; FIG. 2. The protocol:
OCI-Ly7 cells were aliquoted into 1.5 ml tubes at a density of 3×10^5 cells per tube. The anti-CD22 scFv-Cκ-HA fusion protein (0.25 μM) was added to each tube, followed by incubation on ice for 30 minutes. After washing twice with MACS buffer (Miltenyi Biotec), the cells were incubated with Alexa Fluor 647-labeled mouse anti-HA antibody (Clone #912426, R&D Systems, MN, USA) on ice for 30 minutes. Then, the cells were washed twice with MACS buffer, resuspended in 150 μL of 1% paraformaldehyde in MACS buffer, and stored overnight at 4° C. The cells were analyzed by flow cytometry using a FACS Canto II instrument (BD Bioscience, San Jose, CA, USA). For each sample, 10,000 cells were analyzed.

Changes are numbered by the printed parent chain.

B1: anti-CD22 IgG protein 2-3-14 (antibody, V domains shown)
VH: AVTLDESGGGLQTPGGGLSLVCKASGFSFSDYGMGWVRQAPGKGLEFVASISNTGSYTDYGAAVKGRATISRDNGQSTLRLQLNNLRAEDTGTYFCAKSAYGGSYGSSSIDAWGHGTEVIVSS
VL: LTQPSSVSANPGETVKITCSGSNNTYGWYQQKAPGSAPVTVIYDNTNRPSDIPSRFSGSKSGSTNTLTITGVQAEDEAVYFCGSRDSTYVGIFGAGTTLTVLR
notes: also called Feb; 3, 2014
For B1, the binding result in experiment [1] is “binds”.

B2: anti-CD22 IgG protein 2-3-14_H1-24 (antibody, V domains shown)
VH: B1 VH with S28A, S30G, D31R, Y32S, G33S
VL: B1 VL
Take B2: the binding result in experiment [1] was “binds”.

B3: anti-CD22 IgG protein 2-3-14_H2-40 (antibody, V domains shown)
VH: B1 VH with S50F, I51L, S52G, N53S, T54S, G55S
VL: B1 VL
In the case of B3, the binding result in experiment [1] is “binds”.

B4: recombinant anti-CD22 scFv-Cκ-HA fusion protein 2-3-14 (scFv)
scFv: LTQPSSVSANPGETVKITCSGSNNTYGWYQQKAPGSAPVTVIYDNTNRPSDIPSRFSGSKSGSTNTLTITGVQAEDEAVYFCGSRDSTYVGIFGAGTTLTVLGGGGSGGGGSGGGGSAVTLDESGGGLQTPGGGLSLVCKASGFSFSDYGMGWVRQAPGKGLEFVASISNTGSYTDYGAAVKGRATISRDNGQSTLRLQLNNLRAEDTGTYFCAKSAYGGSYGSSSIDAWGHGTEVIVSSGGGGSGGGGSGGGGSRTVAAPSVFIFPPSDEQLKSGTASVVCLLNNFYPREAKVQWKVDNALQSGNSQESVTEQDSKDSTYSLSSTLTLSKADYEKHKVYACEVTHQGLSSPVTKSFNRGESGGAYPYDVPDYAS
notes: The text prints the clone name 2-3-14 as 'Feb; 3, 2014' in several paragraphs (date conversion artefact); also called Feb; 3, 2014; 2-3-14 scFv-Cκ-HA
In the case of B4, the binding result in experiment [2] is reported as “binds”.

B5: anti-CD22 IgG protein CI4-47_8-1_H1-2-37 (antibody, V domains shown)
VH: EVQLLESGGGLVQPGGSLRLSCAASGFTFSRHGMYWVRQAPGKGLEWVSGIGSSGTGTYYGSAVRGRFTISRDNSKNTLYLQMNSLRAEDTAVYYCARDYGSDSGVGWGIYAGEIDAWGQGTLVTVSS
VL: LTQPPSVSVSPGQTARITCSGGSGGYGWYQQKPGSAPVSVIYDNDQRPSGIPERFSGSSSGTTVTLTISGVQAEDEADYYCGSYDSSYVGIFGGGTKLTVLR
As for B5, the binding result in experiment [1] is “binds”.

B6: anti-CD22 IgG protein CI4-47_8-1 (antibody, V domains shown)
VH: B5 VH with R31N, H32Y, G33C, Y35S, V106C
VL: B5 VL
Regarding B6, the binding result in experiment [1] is on record as “binds”.

B7: anti-CD22 IgG protein CI4-47_8-1_H1-2-1 (antibody, V domains shown)
VH: B5 VH with R31K, M34H, V106I
VL: B5 VL
As for B7, the binding result in experiment [1] is given as “binds”.

B8: recombinant anti-CD22 scFv-Cκ-HA fusion protein CI4-47 (scFv)
scFv: LTQPSSVSANPGETVKITCSGGSGGYGWYQQKSPGSAPVSLIYDNDQRPSDIPSRFSGSKSGSTGTLTITGVQADDEAVYYCGSYDSSYVGIFGAGTTLTVLGGGGSGGGGSGGGGSAVTLDESGGGLQTPGGALSLVCKASGFTFSNYCMQWVRQAPGKGLEWVAGIGSSGTGTYYGSAVRGRATISRDNGQSTVRLQLNNLRAEDTGTYYCARDYGSDSGCGWGIYAGEIDAWGHGTEVIVSSGGGGSGGGGSGGGGSRTVAAPSVFIFPPSDEQLKSGTASVVCLLNNFYPREAKVQWKVDNALQSGNSQESVTEQDSKDSTYSLSSTLTLSKADYEKHKVYACEVTHQGLSSPVTKSFNRGESGGAYPYDVPDYAS
notes: Chicken-derived scFv fused to a human constant kappa region and an HA tag; expressed in HEK293F cells, purified on KappaSelect; also called CI4-47 scFv-Cκ-HA
On to B8, for which, in experiment [2], the binding result was “binds”.

B9: CI4-47: recombinant anti-CD22 scFv-Cκ-HA fusion protein (protein)
scFv: B8 scFv
B9: the “binding to CD22 (enzyme immunoassay, OD405)” value with human CD22-His protein is “bind well”. Moreover, in the experiment on OCI-Ly7 cells, the “binding to OCI-Ly7 cells (flow cytometry)” value is reported as “strong binding”.
